Measurements as given in patent US20250034594A1, “RNA-GUIDED GENOME RECOMBINEERING AT KILOBASE SCALE” (THE BOARD OF TRUSTEES OF THE LELAND STANFORD JUNIOR …, priority 2021, published 2025).

B1: SSAP_246: SEQ ID NO: 415; Anoxybacillus (protein, listed as Anoxybacillus sp.)
chain: ATTQSLKNQIAKKQNSNIQQGVTLKQLLNSESMKKRFEEVLGKRAQQFATSILNLYNSEKMLQKCEPMSIISSAMVAASLDLPVDKNLGYMYIVPYGTTATPIMGYRGYIQLALRTGQYKHINVIEVYEGELQKWDRLTEEFEMDSKQKKSDVVVGYAAYFELINGFRKTVYWTREQIEAHRKKYSKSDFGWKNDFDAMAKKTVLKSLLSKWGILSIEMQNAFNEDEKEVDTKEVKDITSEVQEAEYIEAEAFEVPIETETPQQEEIVFDAQ
B2: SSAP_147: SEQ ID NO: 316; Staphylococcus felis (protein, listed as Staphylococcus felis)
chain: ANANSFKEQVSNKNEVSENNNTPQQKTKGPRQQVSDLLERMAPEIQKALPSHMSAERMARIAMTAISSNTQLLECNPRSLIGALLQASQIGLEPNTALGQAYLIPYYNRNKGEFEAQLQLSYLGLIELATRTGQYKAIYAHEVYKEDEFYYEYGLHKNLVHKPVDDPKSEPIGYYAVYHLQNGGYDFSFWTRNKVELHSGQYSKAVQKGWNSPWKTDFNAMAKKTVLKDLLKYAPKSVEVSRAVGTDSKVSEISQNGEIIDVTDYSKEEE
B3: SSAP_271: SEQ ID NO: 440; Nocardia ninae (protein, listed as Nocardia ninae)
chain: AESISKEVARQANPLAVVAKYQNELGKSMPAAIRGDVGRWMMVAEMAVRKNPKLLSIVQADQGASLMRALIECARLGHEPGTKYFYLVPRGNQISGEEGYHGIIKRVLNSGHYQKVLARTVFERDEYSFDPLTDQLPTHVPASGERGKPVSAYAFALHWDGTPSTVAEASPERIAAAKAKSYGTDRKDSPWQSVTGVMYRKTAIRELEPYVHTSAEPQPRQDNAGSRGAVMDPSTYDDAEPLDADVLDITADQIAEHDGEGAL
B4: SSAP_70: SEQ ID NO: 239 (protein)
chain: SNLKNQLANKAGGTATKKQPQTMQDWIKVMEPQIKKALPSVITAERFTRMALTAISTNPKLAECTPESFMGALMNAAQLGLEPNTPLGQAYLIPYGKSVQFQVGYKGLMELAQRSGQFKSIYAHTVYENDEFEVEYGLTQNIVHKPNFDDRGKPIGFYAVYKLTNGGENFVFMTQREVEEFGKAKSKTFNNGPWKTDFEAMAKKTVLKQLLKYAPIKVEFQREIAQDATIKTEIAEDMTEVPEEMVEAEYEVVEQNTMAEDADLKGTPFETK
B5: SSAP_31: SEQ ID NO: 200 (protein)
chain: TTVNQTELKNKLAEKAKTPAKTGNTVFDLIRKMEPEIKRALPKQISPERFARIAMTAVRNTPKLQACEPISFIAALMQSAQLGLEPNTPLGQAYLIPYGKEVQFQLGYQGMLTLAYRTGEYQSIYAMPVYANDEFEYEYGLNEKLVHKPAPDPEGEPIYYYAVYKLKNGGHGFVVMSRQQIERHRDKYSPSAKQGKFSPWNTDFDSMAKKTVLKQLLKYAPKSVEFATQIAQDETIKTEIAEDMTEVQGIEVEYEATDDQENQENQEQED
B6: SSAP_25: SEQ ID NO: 194 (protein)
chain: NNEVMEKSVEYEVNGNSVKLTPNMIKQFITKGNADVTDQEAIMFMKLAEQQQLNPFLNEVYLIKFKGKPAQNIVAKEAFMKRAEKHSEYDGLEAGIIVQRGEEIKELPGAVCLPTDNLLGGWARVYRKDRKNPFYVQLDFKEFSKGQATWNQMPKNMIRKTAIVNALREAFPEALGAMYTEDDARLEEVKTAEPIKEKAETTQILENKFKELSENGQTEVGDEQTNESTEPEPTAKQEQLL
B7: SSAP_86: SEQ ID NO: 255 (protein)
chain: ADLTKTANGADLAAAIGGKQAETGRATAFDLVKSMEAEFAKALPRHVPVEQFMRTAVTELRQNADLQRSTSESLLGAFLTAARLGLEVGGPMGEFYLTPRFAKLPGQDQKAWQVVPIVGYRGLVKLARNAGVGAVKAWVVYEGDHFVEGANSERGPFFDFHPVPGDPAGRKEVGVLAVARLSGGDVQHTYLTIEQVEKRKARGSAGDKGPWATDRAAMIRKSGIRALAGELPQSTLLALARVVDEEVQTYVPGSLVDVGTGELEA
B8: SSAP_3: SEQ ID NO: 167; RecT Escherichia coli (protein)
chain: MTKQPPIAKADLQKTQGNRAPAAVKNSDVISFINQPSMKEQLAAALPRHMTAERMIRIATTEIRKVPALGNCDTMSFVSAIVQCSQLGLEPGSALGHAYLLPFGNKNEKSGKKNVQLIIGYRGMIDLARRSGQIASLSARVVREGDEFSFEFGLDEKLIHRPGENEDAPVTHVYAVARLKDGGTQFEVMTRKQIELVRSLSKAGNNGPWVTHWEEMAKKTAIRRLFKYLPVSIEIQRAVSMDEKEPLTIDPADSSVLTGEYSVIDNSEE
B9: SSAP_245: SEQ ID NO: 414; Paenibacillus macquariensis subsp. defensor (protein, listed as Paenibacillus macquariensis)
chain: SDKLLVIHKNLENLLDSKREAMPSNFNKTRFLQNCMTVLQDTRDIDKCDATSVARTMLKGAFLGLDFFNKECYAITYAGAVQFQTDYKGEKKLAKKYSVRPVRDIYAKLVKEGDDFKEEVKDGQQTIQFAPKPFNDGEVLGAFAVALFEDGGLVYEVMSKVDIETTRKNYSKQANGQAWTKSPGEMYKKTVLRRLCKNIELDFDTIEQAQAFEDSGDMDLNKEVKPPQVSPLNATVIDAEYTEIREGDPNATNQE
B10: SSAP_171: SEQ ID NO: 340; Streptomyces indicus (protein, listed as Streptomyces indicus)
chain: STDARNAVARRAETVGQVEQQAQQQPTLAQQIERMKPEMERALPKHMSADRMARIALTLIRKNPDLATCNTQSFLGALMTCSQLGFEPGSPTQEAYIIPRKGNAEFQLGYQGMVTLFYQHPMASSIKVETVRENDYFEHEEGLEERLVHRPCATGPRGRAIAYYSVARLINGGRTFKVMYPDEIEERRQKLPSKNSPAWRDNYDEMAKKTVLRNHFKALPKSAQLARALAHDGTVRTDATADVIDVAPEYPQRPELEAGPTA
B11: SSAP_206: SEQ ID NO: 375; Actinopolyspora xinjiangensis (protein, listed as Actinopolyspora xinjiangensis)
chain: TGQTIGTAVAKKDDENPSAIIATNRADLARVMPSHVRTDSWVRIAQGIVRRDKNLAHAARQSPGTLMVALMEAARLGLEPGTEQYYLTPRKNKGKPEVLGIPGYQGLIELMYRSGAVSSVVVETVRENDTFQWAPGRMERPEHEADWFAINGERGQLRGVYAYAIMSNGATSKVVVLNRNDIARARDSAQGADSEHSPWKNHEEAMWLKTAARRLAKWVPTSTEDRRIVQGVAERSDQPTEAPLDLTDEPDTDQPIEGELVDEEATQ
B12: SSAP_84: SEQ ID NO: 253; Bet Fimbriiglobus ruber (protein)
chain: TDIAHRSYSAPQLSLIRRTVAKDTNQDEFDLFIEICKQQGLDPFKKQIFAQVYNKDKADKRQIVIVTSIDGYRAKAQRCGDYRPAEEETRFEADAALKIRRQPMGSFVRSCGLQVRPGQGVVSRVGEARWDEFAPLDDAEFDWVDTGETWPDTGKPKKKKVAKSAKKTLKEGNWKNMPHVMLGKCAEAQALGGGGRKRSAACTSKRRWTRSTWT
modifications: Fimbriiglobus ruber
B13: SSAP_90: SEQ ID NO: 259; Xenorhabdus poinarii (protein, listed as Xenorhabdus poinarii)
chain: TNTPPLAQADLQKAQPQTKVAATKDQALIQFINKPSMKAQLAAALPRHMAPDRMIRIVTTEIRKTPALANCDMQSFVGAVVQCSQLGLEPGSALGHAYLLPFGNGKSKTGQSNVQLIIGYRGMIDLARRSGQIVSISARTVRDGDQFHYEYGLNENLTHIPGENEDAPITHVYAVARLQDGGVQFEVMTRKQVEKVREKSSAGNNGPWVTHWEEMAKKTVIRRLFKYLPVSIEMQKAVILDEKADANIDQDNAAIFEGEFEEVGNDG

Legend:
Type in all cases: cell-based
[1] = test system: gene editing with Cas9; test: Screen of 322 new SSAP proteins, gene editing activity with Cas9 (Table 5); parameters: Cas9 with SSAP activity: scale not given here
Method in brief: (§1)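 Read-out is gene editing activity. Candidates come from sequence data mining, are made synthetically, and are tested alongside either nuclease-active Cas9 or catalytically dead dCas9.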

[2] = test system: gene editing with dCas9; test: Screen of 322 new SSAP proteins, gene editing activity with dCas9 (Table 5); parameters: dCas9 with SSAP activity: scale not given here
Method in brief: as §1

[3] = test system: gene editing with Cas9 and dCas9; test: Screen of 322 new SSAP proteins, activity across all experiments (Cas9 and dCas9, Table 5); parameters: scale not given here
Method in brief: as §1

Molecule | Cas9 with SSAP activity [1] | Cas9 with SSAP activity (normalized) [1] | dCas9 with SSAP activity [2] | dCas9 with SSAP activity (normalized) [2] | Activity across all experiments [3]
B1 | 0.824 | 0.919 | −3.897 | −0.611 | −1.537
B2 | 0.679 | 1.062 | −4.023 | −0.498 | −1.672
B3 | 0.372 | 0.623 | −3.947 | −0.622 | −1.788
B4 | −1.263 | −0.349 | −4.070 | −0.652 | −2.666
B5 | −4.826 | −0.842 | −4.110 | −0.643 | −4.468
B6 | 0.597 | 0.880 | −4.113 | −0.660 | −1.758
B7 | 0.575 | 0.280 | −3.974 | −0.714 | −1.700
B8 | −0.942 | −0.788 | 1.058 | 0.695 | 0.058
B9 | 0.282 | 0.572 | −3.899 | −0.575 | −1.809
B10 | −0.924 | −0.410 | −4.132 | −0.827 | −2.528
B11 | 2.444 | 1.806 | −4.016 | −0.671 | −0.786
B12 | −1.881 | −0.590 | 1.313 | 1.563 | −0.284
B13 | −0.504 | −0.093 | −3.935 | −0.892 | −2.219
